Data published in patent US20120237507A1.

Target: c-Met on A549 cells (UniProt P08581)
Test: half-maximal binding, flow cytometry on A549 cells

Sequence of UniProt P08581 (P08581 25-1390 limits assumed): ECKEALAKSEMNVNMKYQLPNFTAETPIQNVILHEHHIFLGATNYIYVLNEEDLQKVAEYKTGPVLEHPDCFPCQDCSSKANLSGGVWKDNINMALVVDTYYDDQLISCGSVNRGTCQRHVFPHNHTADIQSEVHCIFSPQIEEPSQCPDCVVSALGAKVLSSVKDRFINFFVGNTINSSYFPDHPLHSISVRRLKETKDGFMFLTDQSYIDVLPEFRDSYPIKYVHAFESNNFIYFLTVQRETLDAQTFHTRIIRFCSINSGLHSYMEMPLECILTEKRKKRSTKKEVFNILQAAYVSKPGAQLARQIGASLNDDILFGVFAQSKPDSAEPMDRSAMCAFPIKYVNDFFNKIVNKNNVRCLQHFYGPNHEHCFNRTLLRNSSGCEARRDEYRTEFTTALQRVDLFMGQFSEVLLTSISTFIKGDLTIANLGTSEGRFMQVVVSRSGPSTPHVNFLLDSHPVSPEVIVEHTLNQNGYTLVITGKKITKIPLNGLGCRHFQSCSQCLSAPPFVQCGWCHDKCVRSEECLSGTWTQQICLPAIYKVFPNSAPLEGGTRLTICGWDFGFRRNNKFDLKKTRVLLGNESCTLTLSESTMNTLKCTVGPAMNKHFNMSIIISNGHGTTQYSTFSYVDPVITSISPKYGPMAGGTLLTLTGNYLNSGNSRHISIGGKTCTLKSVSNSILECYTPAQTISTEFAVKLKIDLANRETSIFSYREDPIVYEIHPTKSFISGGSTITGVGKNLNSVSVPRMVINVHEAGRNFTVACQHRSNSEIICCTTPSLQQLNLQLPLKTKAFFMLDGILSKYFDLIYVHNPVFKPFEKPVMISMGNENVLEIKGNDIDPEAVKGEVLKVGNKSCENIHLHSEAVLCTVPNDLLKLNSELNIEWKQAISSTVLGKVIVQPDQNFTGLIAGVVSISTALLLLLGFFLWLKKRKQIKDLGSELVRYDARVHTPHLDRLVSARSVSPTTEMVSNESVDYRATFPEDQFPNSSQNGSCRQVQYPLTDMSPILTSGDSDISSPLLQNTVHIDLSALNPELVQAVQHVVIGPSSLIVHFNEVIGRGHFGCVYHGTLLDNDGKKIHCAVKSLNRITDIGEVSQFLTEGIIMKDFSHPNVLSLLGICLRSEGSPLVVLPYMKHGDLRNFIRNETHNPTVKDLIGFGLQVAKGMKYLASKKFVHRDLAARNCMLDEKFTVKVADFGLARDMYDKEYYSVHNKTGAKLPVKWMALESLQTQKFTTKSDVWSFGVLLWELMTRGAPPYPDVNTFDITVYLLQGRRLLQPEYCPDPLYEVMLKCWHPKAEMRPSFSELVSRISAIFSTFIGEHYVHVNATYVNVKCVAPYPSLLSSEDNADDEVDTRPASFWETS

For MetMAb/OA-5D5 (Genentech) (antibody), the EC50 was 1.45 nM.
